The target of assay [1] is T1, intact K8/intact K18 heterotypic complex (recombinant GST fusion proteins) (human, UniProt P05787 2-483; P05783 2-430).
T1 construct: Heterotypic complex of two GST fusion proteins; also called intact K8/K18 complex; not shown: glutathione S-transferase (GST) fusion partner, modified pGEX-2T vector
T1 chain 1: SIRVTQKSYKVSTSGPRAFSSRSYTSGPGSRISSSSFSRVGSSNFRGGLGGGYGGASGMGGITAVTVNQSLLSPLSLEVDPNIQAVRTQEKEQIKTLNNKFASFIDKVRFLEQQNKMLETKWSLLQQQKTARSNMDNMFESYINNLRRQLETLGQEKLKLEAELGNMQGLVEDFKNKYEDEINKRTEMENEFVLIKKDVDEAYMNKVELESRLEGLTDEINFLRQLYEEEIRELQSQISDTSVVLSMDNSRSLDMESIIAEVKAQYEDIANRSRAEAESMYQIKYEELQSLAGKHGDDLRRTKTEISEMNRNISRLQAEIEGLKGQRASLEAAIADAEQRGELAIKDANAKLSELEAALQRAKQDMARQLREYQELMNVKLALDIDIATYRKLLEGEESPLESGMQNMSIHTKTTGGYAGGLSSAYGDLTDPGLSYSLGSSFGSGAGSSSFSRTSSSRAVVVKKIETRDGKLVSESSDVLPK
T1 chain 2: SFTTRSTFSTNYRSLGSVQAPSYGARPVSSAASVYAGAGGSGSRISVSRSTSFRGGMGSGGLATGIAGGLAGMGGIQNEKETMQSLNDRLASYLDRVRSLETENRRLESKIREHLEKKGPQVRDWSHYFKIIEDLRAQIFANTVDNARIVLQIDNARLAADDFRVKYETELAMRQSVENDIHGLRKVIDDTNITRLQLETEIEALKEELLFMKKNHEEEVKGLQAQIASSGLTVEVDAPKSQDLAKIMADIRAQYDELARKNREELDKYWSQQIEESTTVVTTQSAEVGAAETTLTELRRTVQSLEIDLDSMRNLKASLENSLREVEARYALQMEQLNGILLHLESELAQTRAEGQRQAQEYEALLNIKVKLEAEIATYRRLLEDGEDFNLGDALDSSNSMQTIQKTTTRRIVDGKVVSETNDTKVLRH
Nature of the assay: SPR (BIAcore), complex immobilized, COU-1 injected.

In assay [2] the target is T2, K18(1-187) GST fusion protein (human, UniProt P05783 2-188).
T2 construct: Alone, not complexed; not shown: glutathione S-transferase (GST) fusion partner, modified pGEX-2T vector
T2 sequence: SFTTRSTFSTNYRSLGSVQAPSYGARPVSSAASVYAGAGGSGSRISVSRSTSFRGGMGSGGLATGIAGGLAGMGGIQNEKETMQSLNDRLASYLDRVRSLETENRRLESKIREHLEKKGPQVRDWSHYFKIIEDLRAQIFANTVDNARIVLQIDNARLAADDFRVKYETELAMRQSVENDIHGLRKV
The assay can be described thus: Western blot of SDS-PAGE-separated K18 GST fusion proteins, stained with COU-1 alone.

The target in assay [3] is T3, K18(1-213) GST fusion protein (human, UniProt P05783 2-214).
T3 construct: Alone, not complexed; not shown: glutathione S-transferase (GST) fusion partner, modified pGEX-2T vector
T3 sequence: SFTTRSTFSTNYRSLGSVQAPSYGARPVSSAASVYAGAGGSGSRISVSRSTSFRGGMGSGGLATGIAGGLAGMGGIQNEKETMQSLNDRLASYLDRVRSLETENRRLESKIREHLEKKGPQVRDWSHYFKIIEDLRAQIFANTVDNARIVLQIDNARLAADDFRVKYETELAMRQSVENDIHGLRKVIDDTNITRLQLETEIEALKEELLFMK
The description is as above.

The target in assay [4] is T4, K18(1-356) GST fusion protein (human, UniProt P05783 2-357).
T4 construct: Alone, not complexed; not shown: glutathione S-transferase (GST) fusion partner, modified pGEX-2T vector
T4 sequence: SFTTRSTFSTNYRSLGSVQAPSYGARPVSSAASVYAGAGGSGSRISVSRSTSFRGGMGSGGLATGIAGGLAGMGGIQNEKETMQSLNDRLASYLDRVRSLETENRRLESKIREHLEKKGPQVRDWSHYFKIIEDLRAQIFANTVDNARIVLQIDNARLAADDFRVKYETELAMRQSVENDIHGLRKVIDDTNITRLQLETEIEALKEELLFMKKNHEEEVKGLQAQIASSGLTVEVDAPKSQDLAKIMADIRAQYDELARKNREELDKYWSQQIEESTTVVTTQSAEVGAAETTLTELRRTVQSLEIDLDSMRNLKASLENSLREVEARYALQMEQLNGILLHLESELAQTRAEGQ
The assay is described as above.

Assay [5] has as its target T5, recombinant intact K18 (GST fusion protein) (human, UniProt P05783 2-430).
T5 construct: Alone, not complexed with K8; also called full length K18; cytokeratin 18; not shown: glutathione S-transferase (GST) fusion partner, modified pGEX-2T vector
T5 sequence: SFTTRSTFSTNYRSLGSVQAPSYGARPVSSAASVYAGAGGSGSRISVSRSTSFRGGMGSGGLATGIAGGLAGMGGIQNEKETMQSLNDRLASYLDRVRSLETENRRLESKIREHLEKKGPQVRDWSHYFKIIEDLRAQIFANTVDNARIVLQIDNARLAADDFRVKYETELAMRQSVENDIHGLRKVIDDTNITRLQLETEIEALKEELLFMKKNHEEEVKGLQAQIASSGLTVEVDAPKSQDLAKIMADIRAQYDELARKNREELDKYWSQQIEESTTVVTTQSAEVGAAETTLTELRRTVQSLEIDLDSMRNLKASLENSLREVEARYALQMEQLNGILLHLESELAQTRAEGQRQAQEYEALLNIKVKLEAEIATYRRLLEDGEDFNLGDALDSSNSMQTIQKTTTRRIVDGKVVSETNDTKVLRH
The description is as above.

Assay [6] addresses T6, K18(1-124) GST fusion protein (human, UniProt P05783 2-125).
T6 construct: Alone, not complexed; not shown: glutathione S-transferase (GST) fusion partner, modified pGEX-2T vector
Described as above.

The target of assay [7] is T7, K8(1-129)/intact K18 heterotypic complex (human, UniProt P05787 2-130; P05783 2-430).
T7 construct: Heterotypic complex of two GST fusion proteins; not shown: glutathione S-transferase (GST) fusion partner, modified pGEX-2T vector
T7 chain 1: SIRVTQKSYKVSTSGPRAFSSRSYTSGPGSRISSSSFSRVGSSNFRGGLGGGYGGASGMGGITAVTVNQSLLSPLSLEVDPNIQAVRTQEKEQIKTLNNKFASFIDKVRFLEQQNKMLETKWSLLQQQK
T7 chain 2: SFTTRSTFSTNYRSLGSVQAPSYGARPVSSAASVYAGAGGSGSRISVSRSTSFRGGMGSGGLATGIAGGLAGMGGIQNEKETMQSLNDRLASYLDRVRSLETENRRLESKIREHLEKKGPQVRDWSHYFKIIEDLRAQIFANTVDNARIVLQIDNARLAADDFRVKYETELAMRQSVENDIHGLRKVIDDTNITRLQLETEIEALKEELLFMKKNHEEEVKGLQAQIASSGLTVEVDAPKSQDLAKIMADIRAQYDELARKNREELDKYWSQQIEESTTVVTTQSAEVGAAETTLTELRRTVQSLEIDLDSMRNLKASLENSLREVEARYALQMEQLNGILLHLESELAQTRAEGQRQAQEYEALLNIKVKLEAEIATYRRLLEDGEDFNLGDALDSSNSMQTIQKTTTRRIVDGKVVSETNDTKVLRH
The assay can be described thus: ELISA: complex coated at 5 µg/ml, COU-1 in serial dilutions, AP-labeled anti-human kappa antibody. For orientation: In an ELISA, binding on a coated surface is turned into a signal by an enzyme label.

Assay [8] has as its target T8, K8(1-85)/K18(1-124) heterotypic complex (human, UniProt P05787 2-86; P05783 2-125).
T8 construct: Heterotypic complex of two GST fusion proteins; not shown: glutathione S-transferase (GST) fusion partner, modified pGEX-2T vector
Nature of the assay: heterotypic association assay: blotted K8 proteins incubated with purified K18(1-124), then stained with COU-1.

B1: human monoclonal IgM antibody COU-1 (antibody, V domains shown)
VH: GAEVKKPGASVKVSCKASDYTFSSYYMHWVRQAPGQGLEWMGIINPSGGSTSYAQKFQGRVTMTRDTSTNTVYMELSSLRSEDTAVYYCARDQVVVAATLSNYGMDVWGQGTTVTVSS
VL: ELTQSPGTLSLSPGERATLSCRASQSVSSSYLAWYQQKPGQAPRLLIYDASNRATGIPARFSGSGSGTDFTLTISSLEPEDFAVYYCQQGTNWGIAFGQGTRLDIKR
notes: Human IgM with kappa light chain, secreted by hybridoma B9165 (ECACC 87040201), purified from culture supernatant; also called HMab COU-1; HuMab COU-1
B1: in assay [1], the Ka amounted to 1.8e+07 M⁻¹. Moreover, in assay [1], the Kd came to 55 nM. Moreover, the “fold lower binding than to the truncated complexes” value in assay [1] is about 100 fold. In addition, the koff in assay [1] stood at 0.0005 s⁻¹. For the same molecule, the kon in assay [1] amounted to 9100 M⁻¹ s⁻¹. Further, the binding result in assay [2] is “no binding (tested: 5 µg/ml COU-1 (P-0279))”; in assay [3] it was “no binding (tested: 5 µg/ml COU-1 (P-0279))”; in assay [4] it was “no binding (tested: 5 µg/ml COU-1 (P-0279))”; in assay [5], “no binding (tested: 5 µg/ml COU-1 (P-0279))”; in assay [6] it was “no binding (tested: 5 µg/ml COU-1 (P-0279))”; in assay [8], “no binding (tested: 5 µg/ml COU-1 (P-0285))”. Moreover, in assay [7], the “EC50 (read off the curve)” value is about 0.6 µg/mL.

The term Kd denotes the concentration at which binding is half-saturated. As usually defined, the koff is the first-order rate constant of dissociation. As a reminder, the kon is the second-order rate constant of association. Broadly, the EC50 (read off the curve) is the concentration giving half of the maximal effect.

The record behind these values is patent US20050048070A1 (published 2005).
